From publication PMC10248720

Target: T1, WOX11 (rice, UniProt Q0D3I7 1-262)
T1 sequence: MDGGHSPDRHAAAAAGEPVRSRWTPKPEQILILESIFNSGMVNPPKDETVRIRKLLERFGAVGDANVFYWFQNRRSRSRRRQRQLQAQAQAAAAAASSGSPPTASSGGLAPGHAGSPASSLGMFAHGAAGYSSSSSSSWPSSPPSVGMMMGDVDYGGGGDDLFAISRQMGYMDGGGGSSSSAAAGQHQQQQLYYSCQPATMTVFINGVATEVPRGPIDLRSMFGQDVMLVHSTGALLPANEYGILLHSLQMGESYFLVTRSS
Assay: EMSA

B1: PRX111-P2 (dsDNA)
DNA 1: TTCACTTAGCTTAATGCTGCTGGTGGC
DNA 2: GCCACCAGCAGCATTAAGCTAAGTGAA
  binding result: binds
